B1: mek4-AP soluble receptor fusion protein (mouse Mek4 receptor extracellular domain fused to secreted human placental alkaline phosphatase) (receptor)
chain: ELSPQPSNEVNLLDSKTIQGELGWISYPSHGWEEISGVDEHYTPIRTYQVCNVMDHSQNNWLRTNWVPRNSAQKIYVELKFTLRDCNSIPLVLGTCKETFNLYYMESDDHGVKFREHQFTKIDTIAADESFTQMDLGDRILKLNTEIREVGPVNKKGFYLAFQDVGACVALVSVRVYFKKCPFTVKNLAMFPDTVPMDSQSLVEVRGSCVNNSKEEDPPRMYCSTEGEWLVPIGKCTCNAGYEERGFICQACRPGFYKASDGAAKCAKCPPHSSTQEDGSMNCRCENNYFRAEKDPPSMACARPPSAPRNVISNINETSVILDWSWPLDTGGRKDITFNIICKKCGWNVRQCEPCSPNVRFLPRQLGLTNTTVTVTDLLAHTNYTFEIDAVNGVSELSSPPRQYAAVSITTNQAAPSPVMTIKKDRTSRNSISLSWQEPEHPNGIILDYEVKYYQKQEQETSYTILRARGTNVTISSLKPDTTYVFQIRARTAAGYGTNSRKFEFETSPDSFSISGENSHGSSG
notes: extracellular domain; Used as unpurified conditioned supernatant of stably transfected NIH-3T3 cells; Apparent molecular weight about 150 kD; also called AP-mek4; not shown: secreted human placental alkaline phosphatase, as encoded by vector APtag-1 (Flanagan and Leder 1990)

Columns and labels:
[1] = target: T1, cell surface ligand expressed endogenously in the rat liver stromal cell line BRL-3A (rat); assay: Scatchard analysis of AP fusion binding to BRL-3A cells (endogenous ligand)
T1 construct: PI-PLC sensitive (GPI-linked) cell surface ligand; also called endogenous ligand of BRL-3A cells
Protocol: (§1) (FIGS. 3A and 3D) Cells were treated with saturating amounts of mek4-AP or sek-AP, or with AP, each at 500 OD/hr/ml. Columns show the average of two binding determinations, and error bars indicate the difference between the two. (FIGS. 3B–C and 3E–F) show the Scatchard analyses of binding. (FIGS. 3A–3C illsutrate binding to COS cells transfected with Elf-1, and FIGS. 3D–F show endogenous ligand expression by the BRL-3A cell line).
A panel of cell lines was tested with mek4-AP and sek-AP for endogenous expression of a cell surface ligand. Briefly, cells were treated with supernatants containing mek4-AP, sek-AP or unfused AP as a control, each at 1,000 OD/hr/ml. The cells were then washed, lysed and assayed colorimetrically for bound AP activity. […] The highest binding was shown by the rat liver stromal cell line BRL-3A, the mink lung fibroblast line Mv1Lu, and two neural crest cell lines, NC7mycblue and NC7EIablue. The BRL-3A cell line was analyzed further. […] The number of binding sites per BRL-3A cell is approximately 50,000. In situ staining was also used to examine the cell surface binding of mek4-AP and sek-AP to BRL-3A cells, and indicated expression of the ligand over the whole cell surface.

[2] = target: T2, sek-AP soluble receptor fusion protein (mouse Sek receptor extracellular domain fused to secreted human … (mouse; human, UniProt Q03137 20-547); assay: Scatchard analysis, COS cells transfected with Elf-1
T2 construct: extracellular domain; Used as unpurified conditioned supernatant of stably transfected NIH-3T3 cells; Apparent molecular weight about 150 kD; also called Ap-sek; not shown: secreted human placental alkaline phosphatase, as encoded by vector APtag-1 (Flanagan and Leder 1990)
T2 sequence (Q03137 other isoform, or with tags, fused parts or gaps): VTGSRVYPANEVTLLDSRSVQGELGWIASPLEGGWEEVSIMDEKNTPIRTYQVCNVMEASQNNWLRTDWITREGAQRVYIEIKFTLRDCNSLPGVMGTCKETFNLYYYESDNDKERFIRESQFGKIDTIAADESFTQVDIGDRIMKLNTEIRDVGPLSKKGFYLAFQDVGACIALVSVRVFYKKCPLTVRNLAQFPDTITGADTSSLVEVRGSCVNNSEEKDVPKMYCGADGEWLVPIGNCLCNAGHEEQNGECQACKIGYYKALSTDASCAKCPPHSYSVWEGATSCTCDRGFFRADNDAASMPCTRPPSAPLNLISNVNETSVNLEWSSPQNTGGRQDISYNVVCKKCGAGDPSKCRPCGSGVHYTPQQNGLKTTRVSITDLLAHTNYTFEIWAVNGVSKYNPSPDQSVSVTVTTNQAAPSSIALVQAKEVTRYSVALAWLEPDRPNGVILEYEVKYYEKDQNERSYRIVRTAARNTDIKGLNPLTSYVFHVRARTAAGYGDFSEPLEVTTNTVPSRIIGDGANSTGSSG

[3] = target: B1; assay: as above
[4] = target: T2, sek-AP soluble receptor fusion protein …; assay: Scatchard analysis of AP fusion binding to COS cells transfected with Elf-1, colorimetric assay of bound AP activity
Protocol: as §1

[5] = target: B1; assay: as above
Protocol: as §1

| Binder | Kd [1] [nM] | Kd [2] [nM] | Kd [3] [nM] | Kd [4] [nM] | Kd [5] [nM] |
| --- | --- | --- | --- | --- | --- |
| B1 | 1.3 | – | – | – | – |
| Elf-1 (mouse EPH ligand family-1), expressed on the surface of transiently transfected COS cells (ligand, C-terminal glycosyl phosphatidylinositol anchor (sensitive to PI-PLC); attachment residue not stated, The full-length cDNA (209 amino acids) was transfected; also called muElf-1; cell surface Elf-1) RNEDPARANADRYAVYWNRSNPRFQVSAVGDGGGYTVEVSINDYLDIYCPHYGAPLPPAERMERYILYMVNGEGHASCDHRQRGFKRWECNRPAAPGGPLKFSEKFQLFTPFSLGFEFRPGHEYYYISATPPNLVDRPCLRLKVYVRPTNETLYEAPEPIFTSN | – | ~10 | ~1 | 18 | 1.8 |

Source: patent publication US6777536 (Harvard, dated 2004)
